Measurements reported in patent publication US20250129169A1 (Stanford University, published 2025).

T1: Human γC ECD (human, UniProt P31785 23-262, biotinylated (site not stated))
T1 construct: extracellular domain; Biotinylated and held on a streptavidin chip for SPR; also called common gamma; biotinylated human γC ECD
T1 sequence (looked up): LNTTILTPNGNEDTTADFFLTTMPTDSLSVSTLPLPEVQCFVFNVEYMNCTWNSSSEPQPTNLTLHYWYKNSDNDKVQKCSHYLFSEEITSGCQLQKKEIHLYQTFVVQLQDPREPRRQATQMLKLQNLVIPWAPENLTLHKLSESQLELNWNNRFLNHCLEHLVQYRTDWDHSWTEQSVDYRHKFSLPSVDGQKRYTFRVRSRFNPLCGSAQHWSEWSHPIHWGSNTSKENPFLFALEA

B1: γc-VHH4 (VHH)
VHH: QVQLQESGGGSVQAGGSLRLSCTASGFTFNEANHMGWYRQAPGNECELVSTISSDGTTYYPDSVKGRFTISQDNAKKTAFLQMNSLKPEDTAVYYCAADQSRRGSLCLGQGTQVTVSS
notes: also called γC nanobody clone 4
B2: γc-VHH6 (VHH)
VHH: QVQLQESGGGSVQAGGSLRLSCAASGYTYRDYYMGWFRQAPGREREGVASIYTRGSREGSTRYSSSVEGRFTITLDTAKNTLYLQMNSLKPEDTAMYYCAADDRTWLPRVQLGGPRENEYNYWGQGTQVTVSS
notes: also called γC nanobody clone 6
B3: γc-VHH3 (VHH)
VHH: QVQLQESGGGSVQAGGSLRLSCAASGYTYSKNWYMGWFRQTPGKEREGVAVIAYDDWPTYADSVKGRFTISKDNTKNTLYLQMNSLKPEDTAMYYCAARQLGGDYCYFPNLSRFCYNYWGQGTQVTVSS
notes: also called γC nanobody clone 3
B4: γ scFv2 (P2B9) (scFv)
scFv (VH-linker-VL): QVQLQESGPGLVKPSETLSLTCTVSGGSISSSSYYWGWIRQPPGKGLEWIGSIYYSGSTYYNPSLKSRVTISVDTSKNQFSLKLSSVTAADTAVYYCAGDILTGYALDYWGQGTLVTVSSGGGGSGGGGSGGGGSSYELTQPPSMSVSPGQTARITCSGDALPKQFAFWYQQKPGQAPVLVIYKDTERPSGIPERFSGSSSGTTVTLTITGVQAEDEADYYCQSPDSSGTVEVFGGGTKLTVL
notes: also called γc-scFv2 (P2B9)

How the values were obtained:
Human γC ECD [1] = target: T1, Human γC ECD; assay: SPR, steady-state binding affinity (drawn table)
Protocol: (§1) FIGS. 2A-2H show data on SPR validation of IL-2Rβ- and γc-VHHs and agonist screening in YT-1 cells. (A) Biotinylated human IL-2Rβ ECD was immobilized on a streptavidin (SA) sensor chip, and varying concentrations of IL-2Rβ VHH were applied to determine binding parameters using SPR. Sensorgrams are shown on the left, and steady state binding is plotted on the right. Binding affinities (KD) were determined by fitting to steady state response values. (B) Biotinylated human γC ECD was immobilized on a SA chip, and varying concentrations of γc VHH were flowed over the chip to determine binding. […] (C) Steady-state binding affinities between VHH/scFv and IL-2R, as determined by SPR. Values for scFv affinities are derived from patent US20160367664A1 (Wang et al., 2016). (D) Table of pSTAT5 Eₘₐₓ values for the indicated VHH pairings. (E) Tuning IL-2 activity via generation of acid-base VHH zipper pairings. (F) Tuning IL-2 activity via generation of 2:1 β:γc or γc:β stoichiometries. VHH binding modules are linked together in a tripartite (β-γc-β or γc-β-γc) manner. Graph axes are represented as in (E). (G) Dose-response relationship of pSTAT5 geometric mean flurorescence intensities (gMFI) of selected agonists. (H) Corresponding histograms showing STAT5 activity in YT-1 cells treated with human IL-2 vs. IL-2 surrogate agonists at saturating concentration.

Human γC ECD [2] = target: T1, Human γC ECD; assay: SPR; biotinylated human γc ECD on streptavidin chip, VHH as analyte; KD from fit to steady-state responses [Cont.]
Protocol: as §1

Human γC ECD [3] = target: T1, Human γC ECD; assay: drawn table of affinities; the scFv value is derived from patent US20160367664A1 (Wang et al., 2016), not measured in this filing

Row | Binder | Kd (Human γC ECD [1]) [nM] | Kd (Human γC ECD [2]) [nM] | Kd (Human γC ECD [3]) [nM]
1 | B1 | 20 | 19.7 | –
2 | B2 | 69 | 68.6 | –
3 | B3 | 7 | 6.7 | –
4 | B4 | – | – | 79
